Measurements: patent publication US8993717B2, “Gadd45beta targeting agents” (Imperial Innovations Limited, priority 2009, dated 2015)
Like-named read-outs stand apart in the source and are kept apart here. Square brackets hold non-standard residues; d marks the D form. Peptide text beside a SMILES is read from it. * marks the point of attachment. Benzoyl(3-OH,4-OMe) = COc1ccc(C(=O)*)cc1O; Fmoc = O=C(OCC1c2ccccc2-c2ccccc21)*; Myristoyl = CCCCCCCCCCCCCC(=O)*; ClZ = O=C(OCc1ccccc1Cl)*; Cbz = O=C(OCc1ccccc1)*; βAla = NCCC(=O)O

Biological target: T1, Gadd45β/MKK7 interaction (Homo sapiens, UniProt O14733)
T1 construct: The GST-fused full-length kinase was coated for 16 h at 4° C., at a concentration of 42 nM; made in house
T1 sequence (O14733 1-419): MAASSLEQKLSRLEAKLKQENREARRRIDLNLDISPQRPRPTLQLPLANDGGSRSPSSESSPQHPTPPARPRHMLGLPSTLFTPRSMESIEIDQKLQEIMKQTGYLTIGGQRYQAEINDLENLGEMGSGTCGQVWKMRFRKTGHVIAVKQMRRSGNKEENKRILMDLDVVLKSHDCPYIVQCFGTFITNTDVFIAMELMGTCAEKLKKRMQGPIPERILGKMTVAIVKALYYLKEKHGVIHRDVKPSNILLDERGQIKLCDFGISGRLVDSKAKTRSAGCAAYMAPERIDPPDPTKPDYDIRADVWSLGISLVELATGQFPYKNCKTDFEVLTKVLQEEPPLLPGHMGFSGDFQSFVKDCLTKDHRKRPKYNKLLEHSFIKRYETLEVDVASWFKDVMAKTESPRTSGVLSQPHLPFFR
Test: ELISA competition assay of biotin-hGadd45β binding to coated GST-MKK7
Method: To evaluate the inhibitory properties of peptides, ELISA-based assays were performed. In these assays, a fusion protein of glutathione S-transferase (GST) and mitogen-activated protein kinase kinase 7 (MKK7) was coated onto wells of a 96-well plate, while biotinylated-hGadd45β was used in solution. hGadd45β was biotinylated using an EZ Link NHS-LC-biotin kit (Pierce, Rockford, Ill.), according to Tornatore et al. (Tornatore L., et al. (2008). J Mol Biol; 378:97-111).
Firstly, the association between Gadd45β and MKK7 was investigated by ELISA assays as also reported in Tornatore et al. (Tornatore L., et al. (2008). J Mol Biol; 378:97-111). The GST-fused full-length kinase was coated for 16 h at 4° C., at a concentration of 42 nM in buffer A (25 mM Tris pH 7.5, 150 mM NaCl, 1 mM DTT and 1 mM EDTA) into wells of a 96-well microliter plate. Some wells were filled with buffer alone and were used as blanks. After incubation for 16 h at 4° C., the solutions were removed and the wells were filled with 350 μL of a 1% (w/v) solution of NFDM (Non Fat Dry Milk) in PBS (phosphate buffered saline). The plate was incubated for 1 h at 37° C. in the dark. After washing with buffer T-PBS (PBS with 0.004% (v/v) Tween detergent), the wells were filled with 100 μL of biotinylated-hGadd45β at concentrations ranging from 8.4 nM to 168 nM. Each data point was performed in triplicate. Following incubation for 1 hr in the dark at 37° C. the solutions were removed and the wells were again washed with T-PBS. Then 100 μL of a 1:10,000 dilution of horseradish peroxidase-conjugated streptavidin dissolved in buffer was added to each well and the plate incubated for 1 hr at 37° C. in the dark. After removal of the enzyme solution and washing, 100 μL of the chromogenic substrate o-phenylendiamine (0.4 mg/mL in 50 mM sodium phosphate-citrate buffer, containing 0.4 mg/mL of urea in hydrogen peroxide) was added and the colour was allowed to develop in the dark for 5 min. The reaction was stopped by adding 50 μL of 2.5 M H2SO4. The absorbance at 490 nm was measured in all wells and the values were averaged after subtracting the corresponding blanks. Bound protein was then detected as described above. The molar concentration of biotinylated-hGadd45β at which the half-maximal ELISA signal is detected corresponds to the dissociation constant (KD) (Friguet B, Chaffotte A F, Djavadi-Ohaniance L, Goldberg M E. J Immunol Methods. 1985 Mar. 18; 77 (2):305-19). Binding competition assays were performed by coating GST-MKK7 at 42 nM as described, a concentration of biotinylated-hGadd45β of 21 nM (pre-saturation conditions 1:0.5 mol/mol ratio) and, in a first test, using competitors at 21 nM. The binding of biotinylated hGadd45β to GST-MKK7 was analyzed in the presence of increasing amounts of competitor peptide (concentrations ranging from 0.01 nM to 100 nM), and the values obtained with the competitor were expressed as the percentage of the binding detected in the absence of competitor. […] According to the convention adopted in the table “L-Xaa” and “D-Xaa” refer to the L and D forms of amino acid Xaa.
A simplified combinatorial peptide library (Marasco et al. 2008, Curr. Protein Pept. Sci. 9:447-67) was screened for antagonists of the Gadd45β/MKK7 interaction. This library contained a total of 12^4=20,736 different tetrapeptides formed by combinations of the following amino acid residues Gln (Q), Ser (S), Arg (R), Ala (A), Tyr (Y), Pro (P), Met (M), Cys (C), Phe (F), Leu (L), His (H), Asp (D), and was iteratively deconvoluted in four steps by ELISA competition assays using at each step coated MKK7 (42 nM), soluble-biotin-hGadd45β (21 nM) and each of the 12 sub-libraries (42 nM).

[1] = Table II, modified pure peptides
[2] = Table V, FIG. 3C, read-out: IC50 ELISA
[3] = Table I, initial Elisa screening, coated MKK7 42 nM, biotin-hGadd45β 21 nM, competitor 21 nM, sub-libraries 42 nM

Row | Compound | % Inhibition of Gadd45β-MKK7 binding (Table III, modified peptides) [%] | % Inhibition of Gadd45β-MKK7 binding [1] [%] | further results
1 | Ac-YDHQLys(Z)-NH2 (Ac-YDHQK(Cbz)-NH2; SMILES CC(=O)N[C@@H](Cc1ccc(O)cc1)C(=O)N[C@@H](CC(=O)O)C(=O)N[C@@H](Cc1c[nH]cn1)C(=O)N[C@@H](CCC(N)=O)C(=O)N[C@@H](CCCCNC(=O)OCc1ccccc1)C(N)=O) | 2 |  | 
2 | Ac-YDHW-NH2 |  | 58 | 
3 | Ac-WDKW-NH2 |  | 69 | 
4 | NC(=O)CC[C@@H](NC(=O)[C@@H](Cc1c[nH]cn1)NC(=O)[C@@H](CC(=O)O)NC(=O)[C@@H](Cc1ccc(O)cc1)NC(=O)OCc1ccccc1)C(N)=O [Compound 32, Z-Tyr-Asp-His-Gln-NH2] (Cbz-[dY][dD][dH][dQ]-NH2) |  |  | IC50 [2]: > 10 nM
5 | Fmoc-YDFQ-NH2 (SMILES NC(=O)CC[C@H](NC(=O)[C@H](Cc1ccccc1)NC(=O)[C@H](CC(=O)O)NC(=O)[C@H](Cc1ccc(O)cc1)NC(=O)OCC1c2ccccc2-c2ccccc21)C(N)=O) | 19 |  | 
6 | Fmoc(βAla)2-YDHP-NH2 ({Fmoc-βAla-βAla}-YDHP-NH2; SMILES NC(=O)[C@@H]1CCCN1C(=O)[C@H](Cc1c[nH]cn1)NC(=O)[C@H](CC(=O)O)NC(=O)[C@H](Cc1ccc(O)cc1)NC(=O)CCNC(=O)CCNC(=O)OCC1c2ccccc2-c2ccccc21) |  |  | % Inhibition of Gadd45β-MKK7 binding [3]: 16%
7 | N=C(N)NCCC[C@@H](NC(=O)[C@@H](Cc1ccc(O)cc1)NC(=O)OCc1ccccc1)C(=O)N[C@H](Cc1ccccc1)C(N)=O [Compound 19, Z-Tyr-Arg-Phe-NH2] (Cbz-[dY]-[dR]-[dF]-NH2) |  |  | IC50 (read-out: IC50s in vitro): 0.1 nM
8 | Fmoc(βAla)2-YDHD-NH2 ({Fmoc-βAla-βAla}-YDHD-NH2; SMILES NC(=O)[C@H](CC(=O)O)NC(=O)[C@H](Cc1c[nH]cn1)NC(=O)[C@H](CC(=O)O)NC(=O)[C@H](Cc1ccc(O)cc1)NC(=O)CCNC(=O)CCNC(=O)OCC1c2ccccc2-c2ccccc21) |  |  | % Inhibition of Gadd45β-MKK7 binding [3]: 0%
9 | Ac-YERFLys(Z)-NH2 (Ac-YERFK(Cbz)-NH2; SMILES CC(=O)N[C@@H](Cc1ccc(O)cc1)C(=O)N[C@@H](CCC(=O)O)C(=O)N[C@@H](CCCNC(=N)N)C(=O)N[C@@H](Cc1ccccc1)C(=O)N[C@@H](CCCCNC(=O)OCc1ccccc1)C(N)=O) | 6 |  | 
10 | Ac-PERF-NH2 | 24 |  | 
11 | CC(=O)NC(Cc1ccc(O)cc1)C(=O)NC(Cc1ccccc1)C(N)=O (stereo not drawn) [Compound A1, Ac-YF-NH2] (Ac-Tyr-Phe-NH2; configuration not given here) |  |  | IC50 (Table VI, compounds 0.01-100 nM, read-out: IC50 Elisa): > 100 nM
12 | Myr-YERF-NH2 (Myristoyl-YERF-NH2) | 37 |  | 
13 | Fmoc(βAla)2-YDHH-NH2 ({Fmoc-βAla-βAla}-YDHH-NH2; SMILES NC(=O)[C@H](Cc1c[nH]cn1)NC(=O)[C@H](Cc1c[nH]cn1)NC(=O)[C@H](CC(=O)O)NC(=O)[C@H](Cc1ccc(O)cc1)NC(=O)CCNC(=O)CCNC(=O)OCC1c2ccccc2-c2ccccc21) |  |  | % Inhibition of Gadd45β-MKK7 binding [3]: 40%
14 | N=C(N)NCCC[C@@H](NC(=O)[C@@H](CCC(=O)O)NC(=O)[C@@H](Cc1ccc(O)cc1)NC(=O)[C@@H](Cc1ccc(O)cc1)NC(=O)OCc1ccccc1)C(=O)N[C@H](Cc1ccccc1)C(N)=O [Compound 22, Z-Tyr-Tyr-Glu-Arg-Phe-NH2] (Cbz-[dY][dY][dE][dR][dF]-NH2) |  |  | IC50 [2]: > 5 nM
15 | Ac-YDHF-NH2 |  | 94 | inhibition of Gadd45β/MKK7 complex formation in ELISA competition assays (result in words): IC50s similar to those of DTPs
16 | Fmoc(βAla)2-YDHF-NH2 ({Fmoc-βAla-βAla}-YDHF-NH2) |  |  | % Inhibition of Gadd45β-MKK7 binding [3]: 99%
17 | NC(=O)CC[C@@H](NC(=O)[C@@H](Cc1c[nH]cn1)NC(=O)[C@@H](CC(=O)O)NC(=O)[C@@H](Cc1ccc(O)cc1)NC(=O)[C@@H](Cc1ccc(O)cc1)NC(=O)OCc1ccccc1)C(N)=O [Compound 33, Z-Tyr-Tyr-Asp-His Gln-NH2] (Cbz-[dY][dY][dD][dH][dQ]-NH2) |  |  | IC50 [2]: > 10 nM
18 | Ac-YDHFLys(Z)-NH2 (Ac-YDHFK(Cbz)-NH2; SMILES CC(=O)N[C@@H](Cc1ccc(O)cc1)C(=O)N[C@@H](CC(=O)O)C(=O)N[C@@H](Cc1c[nH]cn1)C(=O)N[C@@H](Cc1ccccc1)C(=O)N[C@@H](CCCCNC(=O)OCc1ccccc1)C(N)=O) | 8 |  | 
19 | Ac-YDKF-NH2 |  | 35 | 
20 | Benzoic acid-YERF-NH2 | 24 |  | 
21 | Ac-YARF-NH2 | 17 |  | 
22 | Ac-YDRF-NH2 | 19 | 45 | 

Further lines, with some results ahead:

Row | % Inhibition of Gadd45β-MKK7 binding (Table III, modified peptides) [%] | % Inhibition of Gadd45β-MKK7 binding [1] [%] | Compound | further results
23 | 81 |  | 3-OH—4MeO-Benzoid acid-YDHF-NH2 ({Benzoyl(3-OH,4-OMe)}-YDHF-NH2) | 
24 | 26 |  | Myr-YDHF-NH2 (Myristoyl-YDHF-NH2) | 
25 |  | 64 | Ac-YEKF-NH2 | 
26 | 7 |  | 3-OH—4MeO-Benzoid acid-YDHQ-NH2 ({Benzoyl(3-OH,4-OMe)}-YDHQ-NH2) | 
27 | 40 |  | 2CI-Z-YDHQ-NH2 (ClZ-YDHQ-NH2) | 
28 | 7 |  | Ac-AERF-NH2 | 
29 |  | 93 | Ac-WDRW-NH2 | 
30 |  | 64 | Ac-YEHW-NH2 | 
31 | 60 |  | Fmoc-YERF-NH2 | 
32 |  | 28 | Ac-WDHF-NH2 | 
33 |  | 99 | Ac-YDHQ-NH2 | 
34 | 38 |  | 2CI-Z-YERF-NH2 (ClZ-YERF-NH2) | 
35 | 23 | 52 | Ac-YEHF-NH2 | 
36 | 38 |  | 2CI-Z-YDHF-NH2 (ClZ-YDHF-NH2) | 
37 |  | 59 | Ac-YERW-NH2 | 
38 |  | 23 | Ac-YDKW-NH2 | 
39 | 13 |  | Ac-YEPF-NH2 | 
40 | 28 |  | Ac-YERA-NH2 | 
41 | 13 |  | Z-YDHQ-NH2 (Cbz-YDHQ-NH2) | 
42 |  | 75 | Ac-WEHW-NH2 | 
43 | 28 |  | Myr-YDHQ-NH2 (Myristoyl-YDHQ-NH2) | 
